The text below walks through data of patent publication US20220193270A1, “METHOD FOR ENHANCING TUMOR GROWTH” (MINERVA BIOTECHNOLOGIES CORPORATION, priority 2013, published 2022).

Assay [1] relates to MUC1-positive T47D breast cancer cells. The experiment in a line: RT-PCR of cancer stem cell markers and chromatin rearrangement factors in T47D cells cultured in serum-free minimal media with agent. Type of assay: cell-based, human. The protocol: (§1) Example 3: Agents that are able to maintain stem cells in the naïve state transform cancer cells into cancer stem cells wherein only a small number of cells are required for engraftment. Cancer cells were cultured according to standard practice. In the controls, the cancer cells were cultured in their normal media: RPMI for T47D breast cancer cells, DU145 and PC3 prostate cancer cells. However, the test agents, recombinant proteins human NME1 dimers, bacterial HSP593 NME1 dimers, human NME7-AB and 2i, were added to a serum-free minimal media to eliminate potential interference from the many growth factors and cytokines in serum.
Serum-free Minimal Media 500 mL includes the following components: 394 mL DMEM/F12, GlutaMAX; 100 mL Knockout™ Serum Replacement; 5.0 mL 100×MEM Non-essential Amino Acid Solution; 0.9 mL P-mercaptoethanol, 55 mM stock.
(§2) To this serum-free minimal media, rhNME1 (aka NM23) was added to a final concentration of 8 nM, or bacterial HSP593 recombinant NME1 was added to a final concentration of 8 nM, or rhNME7-AB was added to a final concentration of 4 nM, or 2i inhibitors, PD0325901 and CHIR99021, which inhibit the MAP kinase pathway and GSK3, respectively, were added to a final concentration of 3 μM and 1 μM.
When a rho kinase inhibitor, “Ri” or “ROCi”, was added it was Y27632 from Stemgent (Cambridge, Mass.), added immediately before use to a final concentration of 10 uM.
Example 3a: Breast cancer T47D cells were cultured either in the traditional RPMI growth media or in a minimal stem cell media to which was added either human NME1 dimers, also known as NM23-H1, bacterial HSP593 NME1 dimers, human NME7-AB, or kinase inhibitors known as ‘2i’. What these agents have in common is that they are each able to promote the growth of stem cells in the naive state or are able to revert primed state stem cells to the less mature naive state. We observed that some of the T47D cancer cells cultured in any of these agents became non-adherent. These ‘floaters’ were also morphologically different. The addition of a rho kinase inhibitor, called ‘Ri’ or ‘ROCP here caused most of the cells to remain attached to the surface. […] When a rho kinase inhibitor is added, all the cells remain attached but the RT-PCR measurements indicate that the resultant measure is of a mixture of the cells that were transformed and those that were not or were not yet.
Example 3c: In this example, the effect of ‘2i’ inhibitors on cancer cells was tested. Recall that 2i is the name given to 2 small molecules, […] that inhibit the MAP kinase pathway and GSK3 respectively. […] In this experiment, we cultured MUCl-positive T47D breast cancer cells in minimal media to which was added either 2i or NME7-AB.

A further assay concerns human fibroblasts. Put plainly: RT-PCR of stem/cancer markers and chromatin rearrangement factors in fibroblasts cultured with NME proteins. It is filed as cell-based. Particulars: after 15-20 days in culture. The protocol:
Agents that are able to maintain stem cells in the naive state are also able to transform somatic cells to a cancer or stem-like state. Human NME1 dimer or human NME7 are able to make somatic cells revert to a less mature state, expressing stem and cancer cell markers. Bacterial NME from HSP 593 was tested alongside the human homologs to determine if it could mimic their function by being able to revert somatic cells to a cancer-like state. Human fibroblasts were cultured in a serum-free minimal base media with either HSP 593, human NME1 dimers or human NME7-AB as the only growth factor or cytokine. […] Recalling that stem cells and metastatic cancer cells can grow anchorage-independently, we repeated the experiments but this time a rho kinase inhibitor was added to one set of cells to make the cells adhere to the surface. […] Photos of the experiment show the dramatic change in morphology as the fibroblasts revert when cultured in human or bacterial NME, FIGS. 52-59. The relative order of efficiency of reverting somatic cells to a less mature state was NME7>NME1 dimers >NME1 bacterial. […] However, Bacterial NME from HSP 593 apparently up-regulates expression of human NME7 and NME1.
Example 3d: In this example, fibroblast cells were cultured in the presence of recombinant human NME1/NM23 dimers, bacterial HSP593 NME1 dimers or NME7-AB. The fibroblasts were cultured in their normal media as a control, which is for 500 mL, 445 mL DMEM high glucose base media, 5 mL GlutaMAX and 50 mL of fetal bovine serum (FBS). After 15-20 days in culture with either NME1/NM23 dimers, bacterial HSP593 NME1 dimers or NME7-AB, the morphology of the cells completely changed so that they no longer were recognizable as fibroblasts. […] Here, ‘minus ROCi’ refers to cells that became non-adherent and floated off the surface.

Assay [2] concerns the target T1, PSMGFR peptide of the MUC1* extracellular domain (Homo sapiens, UniProt P15941).
T1 sequence (P15941 1110-1154 limits assumed): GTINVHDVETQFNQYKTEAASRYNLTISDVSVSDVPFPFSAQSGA
The experiment in a line: ELISA binding to PSMGFR peptide. Particulars: FIG. 47, FIG. 48b. The source says:
We made recombinant human NM23, also called NME1, dimers that bear the […] mutation that stabilizes dimers. We previously reported that human NME1 dimers bind to the PSMGFR portion of the extracellular domain of the MUC1* receptor (Smagghe et al. 2013). We also made recombinant human NME7-AB that is secreted as a monomer. […] We made recombinant bacterial NME proteins found in Halomonas Sp. 593 (‘HSP 593’) and in Porphyromonas gingivalis W83 that had high sequence homology to human NME1 and had been reported to exist in dimer state (FIG. 48 and FIG. 49). HSP 593 expressed well in E. coli and a significant portion was present as a dimer, which population was then purified by FPLC and confirmed the dimer population (FIG. 48a).
On the technique in general: An ELISA detects its analyte on a solid surface through an enzyme-linked reagent.

Assay [3] concerns PC3 MUC1-negative prostate cancer cells. The experiment in a line: RT-PCR of stem cell markers in PC3 cells cultured with agent. It is filed as cell-based, human. The protocol: as §1, §2
PC3 MUCl-negative prostate cancer cells were also tested for their ability to transform into cancer stem cells when cultured in agents that are able to maintain stem cells in the naïve state. PC3 cells were cultured as described above with either human NME1 dimers, bacterial NME1 dimers or NME7-AB. […] Thus, the RT-PCR measurements of the cancer stem cell markers may be lower because measurements will be the average of transformed cells and non-transformed cells.

[4] abbreviates: serum-free minimal media with agent vs RPMI, FIG. 6.
The mark [5] stands for this setting: summary statement, cells not named.

B1: NME7-AB: recombinant human NME7 variant (A and B domains, SEQ ID NO:39) secreted as a monomer; 'NME7' in the experiments means this protein (protein)
chain: MEKTLALIKPDAISKAGEIIEIINKAGFTITKLKMMMLSRKEALDFHVDHQSRPFFNELIQFITTGPIIAMEILRDDAICEWKRLLGPANSGVARTDASESIRALFGTDGIRNAAHGPDSFASAAREMELFFPSSGGCGPANTAKFTNCTCCIVKPHAVSEGLLGKILMAIRDAGFEISAMQMFNMDRVNVEEFYEVYKGVVTEYHDMVTEMYSGPCVAMEIQQNNATKTFREFCGPADPEIARHLRPGTLRAIFGKTKIQNAVHCTDLPEDGLLEVQYFFKILDN
modifications: Human NME7-AB
notes: 'NME7' in the experiments means this protein
Turning to B1, the “expression of NANOG, KLF2, KLF4 and TBX3” value in assay [1] (FIG. 6) is recorded as “modest increases”. In assay [1] (FIG. 7), the “expression of CDH1 (E-cadherin), MUC1 and NANOG” value is “increases”; the “expression of CXCR4, SOX2 and OCT4” value is “dramatic increases”; the “expression of stem cell markers KLF2 and KLF4” value is reported as “modest increases”. The “expression level of the cancer stem cell markers” value in assay [1] (FIG. 9 and FIG. 10, combinations with 2i versus NME7-AB alone) is “even higher expression level”. Moreover, the “expression of MBD3, CHD4, BRD4 and JMJD6” value in assay [1] (cancer cells cultured in agent, FIG. 13, FIG. 14) is recorded as “naturally suppressed”. Also, the “overexpression of metastasis receptor CXCR4” value in assay [1] (floaters after seven (7) days in recombinant human NME7-AB, FIG. 21 legend) is given as “more than 100 fold”. Besides, the “expression of CXCR4 over control cells cultured in RPMI media” value in assay [1] (floating cells after 7-10 days in minimal media with 4 nM rhNME7-AB, cells used for implantation) is reported as 130 times. Moreover, the “expression of chromatin rearrangement factors MBD3 and CHD4” value in assay [1] (minimal media with agent, FIG. 13, FIG. 14) is “suppressed expression”. Also, in assay [1] (serum-free minimal media with agent as single growth factor vs RPMI, FIG. 6), the “expression of metastatic receptor CXCR4 relative to T47D cells in normal growth media” value is ~200 times. Also, the “CDH1 (E-cadherin) expression increase” value in assay [1] (serum-free minimal media with agent vs RPMI) is recorded as “about 10 fold”. In assay [1] (setting [4]), the MUC1 expression increase entry was “about 10 fold”, the OCT4 expression increase entry was “about 50 times” and the SOX2 expression increase is ~200 times. In addition, in assay [1] (setting [5]), the “up-regulation of CXCR4” value came out at 200 ×, the “up-regulation of KLF4” value was found to be 4 ×, the “up-regulation of MUC1” value was found to be 10 × and the “up-regulation of SOX2” value is on record as > 150 ×. The “expression of stem cell marker genes OCT4 and NANOG” value in the assay with human fibroblasts (FIG. 15) is “greatly increased expression”. For the same molecule, in the assay on human fibroblasts (FIG. 16), the “expression of BRD4, JMJD6, MBD3 and CHD4” value is “decreased expression”. Further, the “binding to PSMGFR portion of the MUC1* extracellular domain” value in assay [2] is “bind to and dimerize”. The “expression of stem cell markers SOX2, OCT4 and NANOG” value in assay [3] (after passage in agent, FIG. 12a) is on record as “modest increases”. For the same molecule, the “expression of cancer stem cell or stem cell markers” value in assay [3] (serial passaging in the media, FIG. 12b) is listed as “decreased”.
